# Results taken from paper PMC11798926 (2024).
# B1: myc-tagged SynDIG4 (wild type) [rat] / HA-tagged μ2 AP subunit [not stated] (parent complex)
# chain 1: MSSEKSGLPDSVPHTSPPPYNAPQPPAEPPIPPPQTAPSSHHHHHHHYHQSGTATLPRLGAGGLASAAAGAQRGPSSSATLPRPPHHAPPGPAAGAPPPGCATLPRMPPDPYLQETRFEGPLPPPPPAAAAPPPPAPAPTAQAPGFVVPTHAGAVGTLPLGGYVAPGYPLQLQPCTAYVPVYPVGTPYASGTPGGPGVTSTLPPPPQGPGLALLEPRRPPHDYMPIAVLTTICCFWPTGIIAIFKAVQVRTALARGDLVSAEIASREARNFSFISLAVGIAAMVLCTILTVVIIIAAQHHENYWDP
# chain 2: MIGGLFIYNHKGEVLISRVYRDDIGRNAVDAFRVNVIHARQQVRSPVTNIARTSFFHVKRSNIWLAAVTKQNVNAAMVFEFLYKMCDVMAAYFGKISEENIKNNFVLIYELLDEILDFGYPQNSETGALKTFITQQGIKSQHQTKEEQSQITSQVTGQIGWRREGIKYRRNELFLDVLESVNLLMSPQGQVLSAHVSGRVVMKSYLSGMPECKFGMNDKIVIEKQGKGTADETSKSGKQSIAIDDCTFHQCVRLSKFDSERSISFIPPDGEFELMRYRTTKDIILPFRVIPLVREVGRTKLEVKVVIKSNFKPSLLAQKIEVRIPTPLNTSGVQVICMKGKAKYKASENAIVWKIKRMAGMKESQISAEIELLPTNDKKKWARPPISMNFEVPFAPSGLKVRYLKVFEPKLNYSDHDVIKWVRYIGRSGIYETRC
# Variants of: B1
# Assay: co-immunoprecipitation (IP: HA, blot: myc), quantified; HEK293T cells; second bar chart of panel D (SD4 vs AMPA); parent: 100; read off a plot
row,percent of parent [%SD4],Variant
1,~65,"chain 1 Y223A, chain 1 I226A"
